Reference: patent US20140287419A1, “Compositions Having Dicamba Decarboxylase Activity and Methods of Use” (priority 2013, published 2014)

Assay: 14C assay with IPTG-induced recombinant E. coli cells (14CO2 capture from [14C]-carboxyl-labeled dicamba)
Conditions: for Dicamba Decarboxylase Activity: IPTG-induced recombinant E. coli cells, [14C]-carboxyl-labeled dicamba, 14CO2 capture; for Enzymatic Detection level: dicamba decarboxylation activity of the protein of the given SEQ ID NO

Molecule	Dicamba Decarboxylase Activity	Enzymatic Detection level
87 (protein, listed as Novosphingobium sp.) MASDIATAADLQTGGRQGYLRIATEEAFATRDQIDVYLRMVRDGTADRGMTSLWGFYAQSPSARATQIIERLLDLGEQRLADMDAAGIDKAVLALTSPGVQPLLDMEEARRIAGNANDRLAERCAAHPDRFIGMTAVAPQDPQWSAREILRGATQLGFKGVQINSHTQGRYLDEPFFDPIFRALGDVGQPLYIHPGTPPDSMIGPLLDAGLDGAIYGFGVETGMHLLRLITAGIFDRYPDLQIMVGHMGEALPYWLYRLDYMHQAGIRSQRYERMRPLKRTIAGYFRSNVLVTCSGMAWEPAIQFARQVMGEDRVMYAMDYPYQYEADEVRALDVMDLSPESKRKFFQTNAERWFDL	High	High
88 (protein, listed as Starkeya novella) MARKIALEEHFTTPELAGKYVARPTQSDALFADIERRLADFDELRLEMMDRAEIDLMVLSVTTPGVQGVRDTGEAIRLARGANDFLAREVQKRPSRYAGFAHLAMQDAEAAATELERAVRELGFRGALINGQTNGHYLDEDQYAPFWERVQELDVPVYLHPGNMADSPAMFAHRPELGGPIWAWTAETAAHALRLVFGGTFTRFPGAKVILGHMGETLPFLLWRLDSRREFDLGEKLAPDALPSAIIKRNIAVTTSGVCDPAPLVAALQALSDDNVMFSVDYPYEDPQLASKFIETAPIGEETRAKVCHGNAERLLGL	High	High
89 (protein, listed as Erwinia billingiae) MATNRRDFLKNATAVMAGSTVFAGSSHFASAAAVEPAAVQPPRRIIALEEHFMLPEFVGYLHETQQNLRNGLVDKVVTPLSDFGKGRLEIMDKNGVDFAVLSLSGPGVQAEPDRVKAVRLARYANDKLATEMQKNPRRYGGFAHLAMQDPLAAANELERCVKQLHMQGGMINGETDGLYLDDRRYDVFWERVEALNVPIYIHPGNPPDYPHMFAGHPEMWGPVWSWAVETCSHALRLIFSGTFDRYPGARVILGHMGETLPIQLWRLDSRYQIANQTFAIKHPPSWYAKKNITITTSGVCNDAALRCALDSMGSENVMFSIDYPFESTEIAVNWLKTANITEQERNAVAWGNATSILRLGA	High	High
90 (protein, Pyrenophora tritici-repentis) MAATIDRVLYLGNATQRRYTSATVSVPRIFGKVALEEHVGTSIWAKYNLTPPANAVVGVLNRPPTLPNTLDTIARLDDINGRLSSMNHSGIGYVIVSLSSPGIQGVHDTALAIKFSTDINDELYLKYANAYPDKFAFFATVPMQDPVAAASELERAVSLLGAKGAAINGYTDIGPPGNSTTRYLDDPINAPFWSKVAALNVPIYLHPRAPPPSQQLVYNYPNNSLSAYPGLVTGGFAYGAETAVHALRLMLSGLFDTHPNIQIILGHAAEGLPFLIHRSDTQLAAEVPGTNGPYKRPLRYYLRNNFYATLSGVRRLSTTQCTLAEMGEERVLFSVDYPFQSNEDAADWFDGVEGMSVETKRKVARGNARRLFNLTVDLDERQIDGDFM	Low	Low
91 (protein, listed as Botryotinia fuckeliana) MASFVCNFGKAALATLLLTPSISAADYTPQETVLNSGRPTFYDASTSIPGKIALEEHVGNDLLNGLYTVPYYPNTNEPQYSDSVYIADVGEKMLDIPSRIANMDAANISISVLTFGGPGIQGVFNATYATYAAGYVNDYLYKNYKNNANYTGRFEFWCSNALQEPSKAATELERCVKELGGVGSFVGGYTNNGGINGTANDIVYLDDPSMEPFLEKVVELDVPIYLHPRMPAPSQLLSVKGYEFLGSSPWGFSSETGAHALRLMVSGTLDKYPTLKIVLGHCGEGLPFFLPRIDQRLRHFKKELFNNTLTMEEYWLRNFYVTTAGVQDAGTLVDTIKRTGEDRVMFSVDYPFEDTVEIAGWFDRLEMNTLTKTKLAYENAKALLKLTCYVDAEKRPRIFNKHHVDDIIKHTHSPCIWTLFH	Low	Low
7 (protein, listed as Legionella pneumophila) MAIVDFETHFITEACIDYLTQRQEVPKLVPELNGAYTMCFTPDVSLFHTSALMEELLSLNEQRLAIMDQAGVTIQVLSLTTINGIDSCPGDENKSTALAREVNDQLYSAIQRHPERFKGFASISPYDVKEGVKELERAISQLGFVGWLTHSNFGEDNYLDDKTYWPLLEAAEGLNIPIYLHPNVPIMREFGKYGFALGGSALGFEFDTALCLMRMILGGVFDAFPKLKIMLGHLGETMPFLMERLDHLYRIPDLKAYRPSIQRIPSEVLRQNVYITTSGRFFVPALRYVLEVMGEDRVLFASDYPMESLLDATRFIQDSDLSNQTKQKIFSINAKNLNLI	No	No
92 (protein, listed as Chitinophaga pinensis) MARIVTLEEHVSFPEMTALLPEEILKNRKQSGAALQMQEKLADITGERLTSMKAAGISMQVLSVENTDVYLLPDSLAPAFAAKYNDLLADKISSHSDAFAAFAMLPMTVPEAAADELERAVKTHGFCGAMIKGLINGVFLDAPKFAPVFACAEKLGVPLYIHPGIPPKEVIDAYYSNVGDTKGPNEAIACYGWGWHSETAIHILRLLAAGIFDKYPQLNIIIGHMGEMLPMMWERSNRVFQPGNNGKNQRTLIETFRKQLYITTSGIFTQPPLQIAIDTIGIDNILFSIDYPFSSNQMGIDFLTKAALPAEQLAKMAHGNADRILKF	Yes	High
93 (protein, listed as Mucilaginibacter paludis) MAKYGKHITINKNMRIVTLEEHISFPEMADQIPKAALGSFGRSEAMQRIAPKLADITGERLKSMDANGISMQVLSVDSSGVNLLSPQQGPAFATQYNDLIANRIAGFEKRFTAFAHLPMTAPFAAADELERAVKEHHFCGAMIRGLTGDQFLDHPQFAPIFERAQKLDVPIYLHPGLPPKGVADIYYSGLPNYSGMAEALACYGWGWHSETALHVLRLLFSGIFDQYPKLKLVIGHMGEMLPMMMARSEKAFKPGNGGANVRTLTDTFRSQVYLTTSGFFTQPPLKIALDTFGIDHVMFSVDYPFSTNEMGIEFLNEIDLPDEEVARIAHGNADKLLNLKA	Low	Low
94 (protein, listed as Bacillus thuringiensis) MANRGDSNMKSLVGVIMGSTSDWETMKYACDILDELNIPYEKKVVSAHRTPDYMFEYAETARERGLKVIIAGAGGAAHLPGMVAAKTNLPVIGVPVQSKALNGLDSLLSIVQMPGGVPVATVAIGKAGSTNAGLLAAQILGSFHDDIHDALELRREAIEKDVREGSELV	No	No
96 (protein, Aspergillus nidulans) MAPLIVDVHTHVYPPAYMQMLRSRKTVPYVHDPSNNRDPRLIILSSDDDASIPLDQRGRPVDSSYWDINVKLSFMRQHGINCSVISLANPWLDFVEPAEAQMWAERINDDLEKTCATVNKAADPGNTLTLDQKETLFAFGALPLSAPSSESVVAEIKRLKTLEHLRGVIMGTSGLGKGLDDARLDPVWEALQETDMLMFLHPHYGLPEEAYGGPETTGRYGHVLPLALGFPLETTIAVTRMLLSGVFDRFPRLKILLAHSGGTLPFLAGRIESCILHERKFISGGGDVQGPQRSVWDVLKTNIYLDAVVYGKPGLEAAMTASGSDRLLFGTDHPFFPPLDSKDNSWPSVTTNYQAIHATFDTNSKTVADVLGGNAARILNLK	No	No
